Measured values as given in paper PMC3144224, “Control of Gene Expression by the Retinoic Acid-Related Orphan Receptor Alpha in HepG2 Human Hepatoma Cells”.

Molecular target: T1, RORα1 (NR1F1) (human, UniProt P35398 1-523)
T1 sequence: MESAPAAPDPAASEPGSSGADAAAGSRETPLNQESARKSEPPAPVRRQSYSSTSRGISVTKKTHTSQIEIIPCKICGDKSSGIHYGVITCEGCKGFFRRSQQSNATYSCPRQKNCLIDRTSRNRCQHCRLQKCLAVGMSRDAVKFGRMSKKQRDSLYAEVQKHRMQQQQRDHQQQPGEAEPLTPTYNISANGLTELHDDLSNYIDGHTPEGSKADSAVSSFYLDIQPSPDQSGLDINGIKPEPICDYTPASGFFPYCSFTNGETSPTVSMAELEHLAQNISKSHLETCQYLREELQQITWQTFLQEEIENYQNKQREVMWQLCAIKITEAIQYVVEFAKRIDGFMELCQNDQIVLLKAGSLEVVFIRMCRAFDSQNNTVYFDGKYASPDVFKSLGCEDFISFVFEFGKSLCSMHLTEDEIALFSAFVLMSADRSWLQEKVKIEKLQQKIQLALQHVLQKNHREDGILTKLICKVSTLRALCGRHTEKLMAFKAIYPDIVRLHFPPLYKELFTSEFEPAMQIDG
Assay: EMSA; 15 mM Tris-HCl pH 7.5, 50 mM KCl, 15 mM NaCl, 1 mM MgCl2, 0.03 mM EDTA, 1 mM DTT, 7% glycerol, 50 ng poly(dI-dC), 50 ng unspecific ss oligonucleotides, 0.15 ng
Settings: protein: ivt; label: 32P (Klenow fill-in, [α-32P]-dATP) when used as probe

B1: SPARC-RORE (dsDNA)
DNA 1: CGGTAGGCTGTTCTGGGTCATCCCTCCAGG
DNA 2: ACGTCCTGGAGGGATGACCCAGAACAGCCT
B1: binds.
